# In PMC8528238 (Nature, 2021):
# B1: DH1047, cross-neutralizing RBD antibody (antibody, V domains shown)
# VH: QVQLVQSGAEVKKPGASVQVSCQASANTFTNHYIHWVRQAPGQGLEWMGIIYPTGGNTIYAQGFQGRVTMTRDTSLNTIYLELSSLRSEDTAVYYCARDVRVDDSWSGYDLLSGGTYFDYWGQGTLVTVSS
# VL: not shown
# B2: DH1041, SARS-CoV-2-specific ACE2-binding site-focused RBD neutralizing antibody (antibody, V domains shown)
# VH: EVQLVESGGGLVQPGGSLRLSCAASGVTFSSYWMSWVRQAPGKGLEWVANIRQDGSEKYSVDSVKGRFTISRDNAKNSLYLQMNSLRAEDTAVYYCARARRADNSGYYGFHFDCWGQGTLVTVSS
# VL: QSVLTQPPSVSGAPGQRVTISCTGSSSNIGAGYDVHWYQQLPGTAPKLLIYGNNNRPSGVPDRFSDSKSGTSASLAITRLQAEDEADYYCQSYDSSLSGWVFGGGTKLTVL
# Molecular target: SARS-CoV-2 D614G stabilized spike ectodomain (SARS-CoV-2, D614G, UniProt A0A6H1PJZ3, D614G)
# Assay: ELISA
row,Binder,binding result
1,B1,binds
2,B2,binds
